Laboratory results taken from US20130171217A1, “ENZYMATIC PERACID GENERATION FOR USE IN SKIN CARE PRODUCTS” (E I DU PONT DE NEMOURS AND COMPANY, priority 2010, published 2013).
“And” between values parts separate entries of the source, which are not always exact repeats. Equal entries are not always repeated.

Assay: One-step procedure on hair tresses, tress tensile strength
Details: for hair tensile strength: pH 6.6, 10 μg/mL enzyme
From the text: COM-TEN® Tensile Tester 95-VD (Com-Ten Industries, Pinellas Park, Fla.), fitted with a 100 lb. (˜45.4 kg) load-cell was used for tensile tests. In order to reduce sample slippage, 5 mm wide strips of industrial grade VELCRO® (Velcro USA, Manchester, N.H.) were attached to the inside edges of the clamps. Before testing the CALIBRATION was set to “off”, FORCE UNITS were set to “grams” and the distance between the clamps was adjusted to 3 cm. The test sample was soaked in water for 30 seconds. Excess moisture was removed by gentle absorption on a paper towel, leaving enough moisture in hair for it to qualify as being at 100% humidity level. The glued edges of the test sample were clamped at both upper and lower clamps in such a way that the VELCRO® strips held the hair just below the glue. Tester speed was set to ˜2.5 inches by adjusting the speed control knob. With the Force meter in RUN mode, TARE was set to ZERO to set the starting PEAK FORCE to 0. To start the test the DIRECTION toggle switch was pressed to UP position. At the conclusion of the test, when the sample failed, the DIRECTION switch was moved to STOP and the peak force was recorded. The hair was cut off along the edge of the clamps at both lower and upper clamps. The clamps were opened and the stubs were removed, dried in air and weighed. The difference in original sample weight and combined weights of the stubs was the weight of the hair undergoing tensile elongation, and this quantity was used to calculate the tensile strength.
Tensile Strength (N/mg hair)=Peak force (Newtons)/(Initial sample weight−weight of stubs)
The hair tresses in these examples were cut from the stock medium brown hair swatches that were custom made by International Hair Importers (Glendale, N.Y.). Each hair tress was glued at one end, and cut at 5 mm width and 4 cm long (excluding the glued portion), with 100+/−20 mg net hair weight. For each test condition, triplicates of hair tresses were used. In the one-step procedure, each hair tress was placed in a clean plastic weighing tray (VWR, Cat. #12577-053), then 1 mL of the perhydrolase HC1121 solution in a buffer was applied to the hair tress, and was rubbed into the hair tress with an applicator. Then calculated amount of triacetin and 30% H2O2 were applied onto each hair tress and rubbed into the hair tress which gave 200 mM triacetin and 100 mM H2O2. The hair tress sat in this reaction mixture for 30 min, before being washed thoroughly with tap water followed by paper towel dry. This completed a 30 min treatment cycle. The treatment cycle was repeated 16 times. Hair tress became lighter-colored and weakened during the treatment. After final rinse and air-drying, tensile strength tests as described in Example 25 were conducted on each hair tress to quantify hair weakening. In addition, L*, a*, b* color measurements were taken for each hair sample to quantify hair color loss, and L*, a*, b* color measurements were also taken for untreated hair as a reference for ΔE color difference calculations. ΔE was calculated in the standard way as ΔE=((L*−L*ref)^2+(a*−a*ref)^2+(b*−b*ref)^2)^0.5. […] At pH 6, when 30 μg/mL HC1121 was used which gave 0.3 μg/mg hair E/H ratio, the tensile strength of treated hair tress reduced to 1.9 N/mg hair, approaching 1.5 N/mg hair, the benchmark strength of hair treated with NAIR® cream for 5 min. At pH 7, when 30 μg/mL HC1121 was used, the tensile strength of treated hair tress was 0.3 N/mg hair, much less than the 1.5 N/mg hair benchmark. Therefore, proper concentration of enzyme at proper pH could weaken hair effectively. The measured hair color loss for treated hair tresses correlated well with the weakening of hair: the greater hair weakening, the greater hair color loss. […]

[1] = 10 μg/mL HC1121, pH 6.6, 50 mM phosphate, 200 mM TA/100 mM H2O2, 24 hr/cycle, 8 cycles
[2] = 10 μg/mL HC1121, pH 6.6, 50 mM phosphate, 200 mM TA/200 mM H2O2, 24 hr/cycle, 8 cycles
[3] = 10 μg/mL HC1121, pH 6.6, 50 mM phosphate, 200 mM TA/300 mM H2O2, 24 hr/cycle, 8 cycles
[4] = 10 μg/mL HC1121, pH 6.6, 50 mM phosphate, 200 mM TA/500 mM H2O2, 24 hr/cycle, 8 cycles
[5] = 10 μg/mL HC1121, pH 6.6, 50 mM phosphate, 500 mM TA/500 mM H2O2, 24 hr/cycle, 8 cycles
[6] = one-step, 30 μg/mL enzyme, pH 6, 30 min × 16, listed as HC1121
[7] = one-step, 30 μg/mL enzyme, pH 7, 30 min × 16, listed as HC1121
[8] = one-step, pH 6.6, 50 mM buffer, 30 min/cycle X 16 cycles, SLES wash each cycle
[9] = one-step, pH 6.6, 50 mM buffer, 24 hr/cycle X 7 cycles, SLES wash each cycle
[10] = one-step, pH 6.6, 100 mM buffer, 30 min/cycle X 16 cycles, SLES wash each cycle

B1: C277S-HC263: C277S variant of Thermotoga maritima perhydrolase fused via a flexible linker to hair-binding domain HC263 (protein)
chain: MAFFDLPLEELKKYRPERYEEKDFDEFWEETLAESEKFPLDPVFERMESHLKTVEAYDVTFSGYRGQRIKGWLLVPKLEEEKLPCVVQYIGYNGGRGFPHDWLFWPSMGYICFVMDTRGQGSGWLKGDTPDYPEGPVDPQYPGFMTRGILDPRTYYYRRVFTDAVRAVEAAASFPQVDQERIVIAGGSQGGGIALAVSALSKKAKALLCDVPFLCHFRRAVQLVDTHPYAEITNFLKTHRDKEEIVFRTLSYFDGVNFAARAKIPALFSVGLMDNISPPSTVFAAYNYYAGPKEIRIYPYNNHEGGGSFQAVEQVKFLKKLFEKGGPGSGGAGSPGSAGGPGSPSAQSQLPDKHSGLHERAPQRYGPEPEPEPEPIPEPPKEAPVVIEKPKPKPKPKPKPPAHDHKNQKETHQRHAAGSGGGGSPHHHHHH
Strength N/mg Hair, average [1]: 1.19 N/mg Hair
Strength N/mg Hair, replicate1 [1]: 1.08 N/mg Hair
Strength N/mg Hair, replicate2 [1]: 1.40 N/mg Hair
Strength N/mg Hair, replicate3 [1]: 1.09 N/mg Hair
Strength N/mg Hair, average [2]: 0.86 N/mg Hair
Strength N/mg Hair, replicate3 [2]: 0.99 N/mg Hair
Strength N/mg Hair, average [3]: 0.55 N/mg Hair
Strength N/mg Hair, replicate1 [3]: 0.58 N/mg Hair
Strength N/mg Hair, replicate2 [3]: 0.50 N/mg Hair
Strength N/mg Hair, replicate3 [3]: 0.57 N/mg Hair
Strength N/mg Hair, average [4]: 0.45 N/mg Hair
Strength N/mg Hair, replicate1 [4]: 0.39 N/mg Hair
Strength N/mg Hair, replicate2 [4]: 0.38 N/mg Hair
Strength N/mg Hair, replicate3 [4]: 0.58 N/mg Hair
Strength N/mg Hair, average [5]: 0.53 N/mg Hair
Strength N/mg Hair, replicate1 [5]: 0.53 N/mg Hair
Strength N/mg Hair, replicate3 [5]: 0.49 N/mg Hair
Strength, replicates 1-3 (one-step, 5 μg/mL enzyme, pH 6, 200 mM triacetin, 100 mM H2O2, 30 min × 16, listed as HC1121): 2.89 N/mg Hair and 3.16 N/mg Hair and 3.03 N/mg Hair
Strength, average (one-step, 5 μg/mL enzyme, pH 6, 30 min × 16): 3.03 N/mg Hair
Strength, average (one-step, 15 μg/mL enzyme, pH 6, 30 min × 16): 2.95 N/mg Hair
Strength, replicates 1-3 (one-step, 15 μg/mL enzyme, pH 6, 30 min × 16, listed as HC1121): 3.58 N/mg Hair and 2.54 N/mg Hair and 2.72 N/mg Hair
Strength, average [6]: 1.9 N/mg Hair and 1.86 N/mg Hair
Strength, replicates 1-3 [6]: 1.77 N/mg Hair and 1.86 N/mg Hair and 1.95 N/mg Hair
Strength, average [7]: 0.3 N/mg Hair and 0.32 N/mg Hair
Strength, replicates 1-3 [7]: 0.31 N/mg Hair and 0.33 N/mg Hair (2×)
hair tensile strength (one-step, 200 mM triacetin, 100 mM H2O2, 8 cycles of 24 hr): 1.2 N/mg hair
hair tensile strength (one-step, H2O2 over 300 mM, 8 cycles of 24 hr): about 0.5 N/mg hair
Strength N/mg Hair, average [8]: 0.65 N/mg Hair
Strength N/mg Hair, replicate1 [8]: 0.59 N/mg Hair
Strength N/mg Hair, replicate2 [8]: 0.50 N/mg Hair
Strength N/mg Hair, replicate3 [8]: 0.85 N/mg Hair
Strength N/mg Hair, average [9]: 0.82 N/mg Hair
Strength N/mg Hair, replicate1 [9]: 0.86 N/mg Hair
Strength N/mg Hair, replicate2 [9]: 0.94 N/mg Hair
Strength N/mg Hair, replicate3 [9]: 0.66 N/mg Hair
Strength N/mg Hair, average [10]: 0.30 N/mg Hair
Strength N/mg Hair, replicate1 [10]: 0.22 N/mg Hair
Strength N/mg Hair, replicate2 [10]: 0.34 N/mg Hair
Strength N/mg Hair, replicate3 [10]: 0.35 N/mg Hair
